What all share (assay type): cell-based, human
One assay concerns fibrocytes. Put plainly: IL-10, icIL-1RA, sIL-1RA expression (PCR, ELISA). On the procedure: FIGS. 11A-11F are graphs showing teprotumumab attenuates bTSH induced IL-10 while enhancing icIL-1RA and sIL-1RA expression in fibrocytes and GD-OF. Fibrocyte cultures were treated with teprotumumab (50 μg/ml), rhSlit2 (50 ng/ml) or human Isotype IgG for 7-9 d, with bTSH (5 mIU/mL) for final 6 h. RNA was extracted and reverse transcribed. Isolated cDNA was subjected to quantitative real-time PCR for IL-10 (FIGS. 11A and 11B), icIL-1RA (FIGS. 11C and 11D). Media and cellular proteins were collected and subjected to specific ELISAs for icIL-1RA and sIL-1RA (FIGS. 11E, 11F, 11G, and 11H). PCR values were normalized to their respective GAPDH levels. icIL-1RA and sIL-1RA protein levels were normalized to cellular protein levels. Data are expressed as the mean±SD of three independent determinations. Experiments were repeated three times. **, p<0.01; ***. P<0.001.
IL-12, IL-23, IL-10, HA and BAFF ELISAs. Confluent cultures were treated with nothing or teprotumumab (50 μg/mL) for 5 d, without or with bTSH (5 mU/mL) for the intervals indicated or 72 h. Media and rinsed cell layers were homogenized in 0.1M NaCl and assayed for HA content using an ELISA kit (K-1200) from Echelon Biosciences Inc. (Salt Lake City, UT) according to manufacturer's instructions. A BAFF specific ELISA, purchased from R & D systems, was used in accordance with the manufacturer's instructions.
(§1) Real-time PCR Confluent fibrocyte and GD-OF cultures were incubated with bTSH (5 mIU/mL), teprotumumab (50 μg/mL) or linsitinib (1 μM) for the time intervals indicated, washed with PBS and RNA was extracted with the Aurum Total RNA Mini Kit (cat. #732-6820, Bio-Rad, Hercules, CA). Cellular RNA (2 μg) was reverse transcribed using QuantiTect Reverse Transcription kit (cat. #205314, Qiagen (Germantown, MD) and real-time PCR was performed using an Applied Biosystems instrument with QuantiTect SYBR Green PCR kit (cat. no. 204143; Qiagen, Frederick, MD). Primer sequences were as follows.

A further assay deals with fibrocytes and GD-OF. Put plainly: BAFF expression and induction by bTSH. The conditions noted are these: teprotumumab 50 μg/ml or rhSlit2 50 ng/ml. The protocol:
FIGS. 12A-12F are graphs showing the effect of bTSH, teprotumumab, and Slit2 on B-cell activating factor (BAFF) expression in fibrocytes and GD-OF. In FIGS. 12A and 12B, cultures were treated for the graded intervals indicated along the abscissas with bTSH (5 mIU/mL). Cellular RNA was harvested and subjected to reverse transcription by RT-PCR (FIG. 12A). Values were normalized to their respective GAPDH levels Medium was assayed for BAFF levels with an ELISA (FIG. 12B). Values were normalized to respective monolayer protein content. Data are expressed as mean f SD of triplicate determinations; *, p<0.05; **, p<0.01; ***, p<0.001. In FIGS. 12C-12F, bTSH, teprotumumab (50 μg/ml) or recombinant human Slit2 (rhSlit2) (50 ng/ml) were added to culture media for the times indicated and analyzed for BAFF mRNA levels as in FIG. 12A. In FIGS. 12F, parental GD-OF strains were sorted into pure CD34^+ and CD34^− subsets. Subsets were then cultured for 48 h, the final 6 h in the absence or presence of bTSH. Data were expressed as mean f SD of triplicate independent determinations from a single experiment representative of three conducted. *, p<0.05; **, p<0.01
IL-12, IL-23, IL-10, HA and BAFF ELISAs. Confluent cultures were treated with nothing or teprotumumab (50 μg/mL) for 5 d, without or with bTSH (5 mU/mL) for the intervals indicated or 72 h. […]

The test system of a further assay is CD34+ fibrocytes. Put plainly: MHC II, CD80, CD86, PD-L1 expression in cultured fibrocytes (RT-qPCR, flow cytometry). The conditions noted are these: rhSlit2 50 ng/ml, 5 to 7 d.
Description: Fibrocyte and T cell isolation and cultivation. Peripheral blood mononuclear cells (PBMCs) were obtained from the venous circulation of clinic patients with GD, TAO or from healthy donors after obtaining informed consent. PBMCs were also obtained from Red Cross donor plasmapheresis filters. They were isolated by Ficoll-Histopaque (Sigma-Aldrich, St. Louis, MO) density gradient centrifugation. Fibrocytes were cultivated as described (Bucala, R, et al., (1994) Mol Med 1, 71-81, incorporated herein by reference in its entirety) except that culture substrata remained uncoated with fibronectin, as previously described (Douglas, R. S., et al. (2010) The Journal of clinical endocrinology and metabolism 95, 430-438). Isolated PBMCs (1×10^6-1×107) were inoculated in six-well plates covered with DMEM containing 10% FBS and incubated in 10-14 days. Adherent monolayers (<5% of the starting population) were washed with PBS and detached using accutase (Millipore) treatment, or mechanical scraping following accutase treatment. Culture purity was routinely confirmed by FACS analysis to be >90% fibrocytes by confirming the CD31^−CD45^+CD34^+CXCR4^+Col I^+TSFR^high phenotype.
Invariably, a small population of tightly adherent T cells were found in the fibrocyte cultures, consistent with the previous findings. Culture viability was routinely verified to be >90%. CD4^+ T cells were enriched using the CD4 isolation cocktail (Cat #0.130-096-533, Miltenyi Biotec, San Diego, CA) followed by negative selection using a magnetic column (Cat #0.130-042-401) according to manufacturer's protocol. Fibrocytes and isolated T cells were cultured and remained untreated or were incubated with human IgG isotype control (5 μg/ml) or teprotumumab (50 μg/mL) for 7 to 9 days. Single cell suspensions were stained with anti-human CD4, CD3, CD34, MHC-2, CD80, CD86, and PD-L1 (BD Biosciences) for 30 min, rinsed and fixed with CytoPerm/CytoFix (BD). They were then stained with anti-human INFγ and IL-17A for 20 min, rinsed, and subjected to the flow cytometry analysis. Gated CD34^+CXCR4^+ fibrocytes and CD4^+CD3^+ T cells were analyzed using quadrant settings based on negative isotype staining.
In vitro studies of CD34^+ fibrocytes and T cells PBMC and GD-OF monolayers were treated in vitro with human IgG isotype control (5 μg/ml), teprotumumab (50 μg/mL), H7 (5 μg/mL), linsitinib (1 μM), bTSH (5 mIU/mL), M22 (1 μg/mL), or IGF-1 (10 nM) for the intervals indicted in the figure legends in a 37° C., 5% CO2, humidified incubator until confluent. Brefeldin A (0.66 μl/ml), (Golgi Stop™, BD Biosciences), phorbol 12-myristate 13-acetate (PMA) (50 ng/ml) and ionomycin (1 μg/mL) were added for 5 h. Cells were rinsed with flow cytometry buffer (1×PBS, 0.5% BSA, 0.1% sodium azide) and stained with the relevant monoclonal antibodies.
as §1
(Quantitative PCR measures a nucleic acid by following its amplification.)

Setting [1] is: teprotumumab 50 μg/ml or rhSlit2 50 ng/ml, 7-9 d.

B1: rhSlit2: recombinant human Slit2, a neural axon repellent generated by CD34− OF (protein, UniProt O94813 31-1529, looked up)
Slit homolog 2 protein: QCSCSGSTVDCHGLALRSVPRNIPRNTERLDLNGNNITRITKTDFAGLRHLRVLQLMENKISTIERGAFQDLKELERLRLNRNHLQLFPELLFLGTAKLYRLDLSENQIQAIPRKAFRGAVDIKNLQLDYNQISCIEDGAFRALRDLEVLTLNNNNITRLSVASFNHMPKLRTFRLHSNNLYCDCHLAWLSDWLRQRPRVGLYTQCMGPSHLRGHNVAEVQKREFVCSGHQSFMAPSCSVLHCPAACTCSNNIVDCRGKGLTEIPTNLPETITEIRLEQNTIKVIPPGAFSPYKKLRRIDLSNNQISELAPDAFQGLRSLNSLVLYGNKITELPKSLFEGLFSLQLLLLNANKINCLRVDAFQDLHNLNLLSLYDNKLQTIAKGTFSPLRAIQTMHLAQNPFICDCHLKWLADYLHTNPIETSGARCTSPRRLANKRIGQIKSKKFRCSAKEQYFIPGTEDYRSKLSGDCFADLACPEKCRCEGTTVDCSNQKLNKIPEHIPQYTAELRLNNNEFTVLEATGIFKKLPQLRKINFSNNKITDIEEGAFEGASGVNEILLTSNRLENVQHKMFKGLESLKTLMLRSNRITCVGNDSFIGLSSVRLLSLYDNQITTVAPGAFDTLHSLSTLNLLANPFNCNCYLAWLGEWLRKKRIVTGNPRCQKPYFLKEIPIQDVAIQDFTCDDGNDDNSCSPLSRCPTECTCLDTVVRCSNKGLKVLPKGIPRDVTELYLDGNQFTLVPKELSNYKHLTLIDLSNNRISTLSNQSFSNMTQLLTLILSYNRLRCIPPRTFDGLKSLRLLSLHGNDISVVPEGAFNDLSALSHLAIGANPLYCDCNMQWLSDWVKSEYKEPGIARCAGPGEMADKLLLTTPSKKFTCQGPVDVNILAKCNPCLSNPCKNDGTCNSDPVDFYRCTCPYGFKGQDCDVPIHACISNPCKHGGTCHLKEGEEDGFWCICADGFEGENCEVNVDDCEDNDCENNSTCVDGINNYTCLCPPEYTGELCEEKLDFCAQDLNPCQHDSKCILTPKGFKCDCTPGYVGEHCDIDFDDCQDNKCKNGAHCTDAVNGYTCICPEGYSGLFCEFSPPMVLPRTSPCDNFDCQNGAQCIVRINEPICQCLPGYQGEKCEKLVSVNFINKESYLQIPSAKVRPQTNITLQIATDEDSGILLYKGDKDHIAVELYRGRVRASYDTGSHPASAIYSVETINDGNFHIVELLALDQSLSLSVDGGNPKIITNLSKQSTLNFDSPLYVGGMPGKSNVASLRQAPGQNGTSFHGCIRNLYINSELQDFQKVPMQTGILPGCEPCHKKVCAHGTCQPSSQAGFTCECQEGWMGPLCDQRTNDPCLGNKCVHGTCLPINAFSYSCKCLEGHGGVLCDEEEDLFNPCQAIKCKHGKCRLSGLGQPYCECSSGYTGDSCDREISCRGERIRDYYQKQQGYAACQTTKKVSRLECRGGCAGGQCCGPLRSKRRKYSFECTDGSSFVDEVEKVVKCGCTRCVS
As for B1, in the assay on fibrocytes (ELISA, fibrocytes), the “sIL-1RA expression (protein)” value is recorded as “attenuated”. Further, in the assay on fibrocytes (setting [1]), the “IL-10 mRNA, basal and bTSH-provoked expression” value is given as “downregulated”; the “basal and bTSH-dependent icIL-1RA and sIL-1RA mRNA levels” value is “upregulated”. Also, the “bTSH induction of BAFF” value in the assay on fibrocytes and GD-OF was “similar”. Moreover, the “MHC II and B7 expression” value in the assay with CD34+ fibrocytes is reported as “repressing”.

Source of the values: patent US20250034264A1, “REGULATING T CELL IMMUNE RESPONSE THROUGH IGF-I RECEPTOR (IGF-1R)” (The Regents of the University of Michigan, priority 2021, published 2025).
